In patent publication US5702897:

Each substance was assayed against LexA/Bax fusion protein (murine) (UniProt P0A7C2).

Row | Substance | colony formation of yeast cotransformed with LexA/Bax, galactose medium (neutralization of Bax activity)
1 | B42/Lamin | 8
2 | B42/Bcl-X-S hybrid | 10
3 | B42/Mcl-1 hybrid | 290

The remaining lines, values ahead:

Row | colony formation of yeast cotransformed with LexA/Bax, galactose medium (neutralization of Bax activity) | Substance
4 | 16 | B42/Bcl-2(83-218) hybrid
5 | 19 | B42/Bcl-2(1-81) hybrid
6 | 280 | B42/Bcl-2(1-218) hybrid
7 | 300 | B42/Bcl-X-L hybrid
